Source: paper PMC8618838

Molecular target: wt HBc capsid like particles (Hepatitis B virus core protein) (Human Hepatitis B virus) (UniProt P03147)
Assay: cryo-EM structure

With “wt HBc capsid like particles (Hepatitis B virus core protein) (from UniProt P03147) (natural protein)” the stoichiometry N was 240.
